Results taken from patent publication US12098206B2, “PDGF receptor antibody and use thereof” (Seoul National University R&DB Foundation, priority 2018, dated 2024).
“Also recorded” adds a separate entry of the source.

Tests used:
[1] = target: T1, human pericyte cells expressing hPDGFR-β (Homo sapiens, UniProt P09619); assay: Flow cytometry binding to human pericyte cells expressing hPDGFR-β; conditions: 100 nM antibody, FIG. 13b
T1 construct: host or cells: human pericyte cells
Protocol: Human pericyte cells were cultured at 4° C. for 1 hour using the bispecific antibody of scFv-Cκ-scFv fusion protein (100 nM) under two different conditions with or without hPDGF-BB-biotin (100 nM, BT220; R&D systems). The cells were washed 4 times with flow cytometry buffer and cultured with allophycocyanin (APC)-anti-human Cκ antibody (clone TB28-2; BD Biosciences, San Jose, CA, USA) and streptavidin-phycoerythrin (PE) (12-4317-87; eBioscience, ThermoFisher). After washing, it was classified and analyzed with a FACS Canto II instrument (BD Biosciences, San Jose, CA, USA). 10,000 cells were used for each measurement, and the results were analyzed by FlowJo (Tree Star, Ashland, OR, USA).

[2] = target: PDGFR-β (Homo sapiens, UniProt P09619); assay: Competition enzyme immunoassay with hPDGF-BB; assay type: binding; set-up: made in house; conditions: hPDGF-BB 100 nM
Chain of PDGFR-β (P09619 33-531): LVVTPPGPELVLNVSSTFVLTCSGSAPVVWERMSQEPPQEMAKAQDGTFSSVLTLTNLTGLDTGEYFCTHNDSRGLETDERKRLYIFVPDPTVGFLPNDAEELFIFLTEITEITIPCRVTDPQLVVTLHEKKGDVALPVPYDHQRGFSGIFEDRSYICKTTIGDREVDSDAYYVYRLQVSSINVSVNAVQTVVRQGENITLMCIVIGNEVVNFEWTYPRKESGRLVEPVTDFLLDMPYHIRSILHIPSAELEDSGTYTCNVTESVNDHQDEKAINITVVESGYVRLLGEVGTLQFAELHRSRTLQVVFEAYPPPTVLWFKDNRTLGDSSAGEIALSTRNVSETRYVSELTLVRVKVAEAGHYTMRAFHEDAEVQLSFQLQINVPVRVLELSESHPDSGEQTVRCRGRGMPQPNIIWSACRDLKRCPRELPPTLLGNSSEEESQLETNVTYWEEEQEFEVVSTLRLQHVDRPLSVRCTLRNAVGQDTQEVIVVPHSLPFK
Protocol: In order to confirm the competition between the bispecific antibody scFv-Cκ-scFv and hPDGF-BB, as in Example 3, hPDGFR-β-Fc chimera was coated on a microtiter plate and then blocked. The microtiter plate was treated with various concentrations of the bispecific antibody (0.01 nM-1 μM) with or without addition of hPDGF-BB (100 nM; 220-BB; R&D systems), and then incubated at 37° C. for 2 hours. The washing, incubation, and detection were performed in the same manner as the enzyme immunoassay described above.

[3] = test system: human pericyte cells; assay: Internalization analysis by confocal microscopy in human pericyte cells; assay type: cell-based
Protocol: Human pericyte cells were treated with the diluted bispecific antibody scFv-Cκ-scFv (10 μg/mL) in pericyte growth medium supplemented with 10% FBS, and internalized at 37° C. for 30 minutes. The analysis was performed in the same manner according to the protocol of the confocal microscope of the anti-mPDGFR-β x cotinine scFv-Cκ-scFv fusion protein of Example 4. After the addition of hPDGF-BB (50 ng/mL) to the bispecific antibody scFv-Cκ-scFv fusion protein, the confocal microscopy experiments were performed according to the same protocol.
The internalization of the bispecific antibody scFv-Cκ-scFv fusion protein was visualized. After treatment of human pericyte cells with the fusion protein, antibodies bound to the cell surface were removed. After cell fixation, the fusion protein was stained with FITC-anti human Cκ antibody (green). To visualize early endosomes, the cells were stained with anti-Rab5 antibody and Alexa Fluor 546-goat anti-rabbit antibody IgG (red). […] DNA was stained with DAPI (blue)(Scale bar, 10 μm). FIG. 13d was repeated with hPDGF-BB.
To measure the cellular internalization of the bispecific antibody of scFv-Cκ-scFv, anti-hPDGFR-β x cotinine scFv-Cκ-scFv fusion protein was incubated in human pericyte cells, and then treated with FITC-anti-human Cκ antibody and endosome-specific antibody. It was imaged using a confocal microscope. […] When the images were merged, the present inventors confirmed that the fluorescence of the two antibody clones and the endosome-specific antibody were co-localized. […] Internalization of the antibody is very important for delivery of drug into the target cell. […] Therefore, it is useful for intracellular delivery of drug to patients with diseases.

[4] = test system: Cynomolgus monkey PDGFR-β; assay: Cross-species enzyme immunoassay, Cynomolgus monkey PDGFR-β; assay type: binding; conditions: 100 nM; FIG. 17
Chain of Cynomolgus monkey PDGFR-β (as listed by the source): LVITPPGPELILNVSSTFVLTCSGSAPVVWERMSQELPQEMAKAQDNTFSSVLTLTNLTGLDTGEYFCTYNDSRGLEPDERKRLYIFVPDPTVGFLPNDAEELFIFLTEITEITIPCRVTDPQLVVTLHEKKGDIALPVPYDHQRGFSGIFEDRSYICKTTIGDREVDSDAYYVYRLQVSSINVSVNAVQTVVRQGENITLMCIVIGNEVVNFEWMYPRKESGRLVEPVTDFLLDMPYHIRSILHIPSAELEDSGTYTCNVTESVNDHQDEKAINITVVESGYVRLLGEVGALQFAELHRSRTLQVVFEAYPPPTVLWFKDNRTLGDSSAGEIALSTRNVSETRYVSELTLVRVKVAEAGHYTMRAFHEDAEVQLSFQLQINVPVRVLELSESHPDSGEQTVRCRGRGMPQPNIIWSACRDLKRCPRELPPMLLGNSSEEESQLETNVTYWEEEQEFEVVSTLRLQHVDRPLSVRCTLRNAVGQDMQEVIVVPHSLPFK
Protocol: 100 ng of hPDGFR-β, mPDGFR-β, rhesus PDGFR-β (90215-C02H, Sino Biological Inc. Beijing, China), cynomolgus monkey PDGFR-β, Sus scrofa PDGFR-β-Fc chimera or TNF-α receptor extracellular domain-human Fc fusion protein was coated with 4° C. temperature O/N. After blocking the wells, sequential culture of the anti-hPDGFR-β scFv-Cκ-scFv fusion protein and the HRP conjugated anti-human Cκ antibody was followed in the same manner as in Example 3.
FIG. 17 is a graph showing an experiment of the cross-species reaction of the bispecific antibody against the anti-hPDGFR-β antibody according to the present invention. On the microtiter plates coated with hPDGFR-β, mPDGFR-β, Rhesus PDGFR-β, Cynomolgus monkey PDGFR-β, Sus scrofa PDGFR-β and control Fc coated, the bispecific antibody containing anti-hPDGFR-β antibody according to the present invention (100 nM) was reacted and the amount of bound bispecific antibody was measured using HRP conjugated anti-human Cκ antibody and TMB.

[5] = test system: human pericyte cells; assay: Anti-proliferative (cytotoxicity) test in human pericyte cells, cellular ATP; assay type: cell-based; conditions: with or without hPDGF-BB; FIGS. 14a and 14b
Protocol: Human pericyte cells were added to 50 μL of DMEM supplemented with 10% FBS and 1% penicillin/streptomycin, placed in a 96-well plate (CLS3595, Corning) and incubated overnight in 5% CO2 at 37° C. incubator. In each well containing 50 μL of cells, 50 μL of 50 anti-hPDGFR-β x cotinine scFv-Cκ-scFv fusion protein (25.6 pM-2 μM) complexed with cot-duo was added and incubated for 72 hours in 5% CO2 and 37° C. incubator.
To evaluate the effect of hPDGF-BB on the toxicity of the complex of the bispecific antibody of scFv-Cκ-scFv and cot-duo, hPDGF-BB (2 nM) was added together with 50 μL of the bispecific antibody scFv-Cκ-scFv and cot-duo complex. The mixed complexes were added to 50 μL of cell-containing solution. The bispecific antibody anti-mCD154 x cotinine scFv-Cκ-scFv was used as a control. Other experimental methods were carried out in the same manner as in the protocol of the anti-mPDGFR-β x cotinine scFv-Cκ-scFv fusion protein in Example 7.
In order to evaluate the toxicity of the anti-hPDGFR-β x cotinine scFv-Cκ-scFv fusion protein and cot-duo complexes, the complex was treated in human pericyte cells with or without hPDGF-BB, and the cells were […] to measure the relative viability. The toxicity of the bispecific antibody of anti-hPDGFR-β x cotinine scFv-Cκ-scFv fusion protein and cot-duo complex was shown by IC50 (Table 8).

[6] = target: T2, hPDGFR-β and cotinine (Homo sapiens, UniProt P09619); assay: Enzyme immunoassay, simultaneous binding to cotinine and hPDGFR-β; conditions: cotinine-BSA coated wells, then hPDGFR-β-Fc chimera; FIG. 12d
T2 construct: made in house
T2 sequence (P09619 33-531): as the sequence (P09619 33-531) above
Protocol: In order to determine of the simultaneous binding ability of cotinine and hPDGFR-β, an anti-hPDGFR-β x cotinine scFv-Cκ-scFv fusion protein was cultured in wells coated with cotinine-BSA. Washing was performed for each process, and hPDGFR-β-Fc chimeric protein and HRP-anti human Fc antibody were incubated in order. The three kinds of bispecific antibody scFv-Cκ-scFv fusion proteins simultaneously bound to hPDGFR-β and cotinine (FIG. 12d).

[7] = 10 μg/mL, 37° C., 30 minutes, absence of hPDGF-BB, FIG. 13c
[8] = treated with hPDGF-BB (50 ng/mL), FIG. 13d

T1 sequence (P09619 33-1106): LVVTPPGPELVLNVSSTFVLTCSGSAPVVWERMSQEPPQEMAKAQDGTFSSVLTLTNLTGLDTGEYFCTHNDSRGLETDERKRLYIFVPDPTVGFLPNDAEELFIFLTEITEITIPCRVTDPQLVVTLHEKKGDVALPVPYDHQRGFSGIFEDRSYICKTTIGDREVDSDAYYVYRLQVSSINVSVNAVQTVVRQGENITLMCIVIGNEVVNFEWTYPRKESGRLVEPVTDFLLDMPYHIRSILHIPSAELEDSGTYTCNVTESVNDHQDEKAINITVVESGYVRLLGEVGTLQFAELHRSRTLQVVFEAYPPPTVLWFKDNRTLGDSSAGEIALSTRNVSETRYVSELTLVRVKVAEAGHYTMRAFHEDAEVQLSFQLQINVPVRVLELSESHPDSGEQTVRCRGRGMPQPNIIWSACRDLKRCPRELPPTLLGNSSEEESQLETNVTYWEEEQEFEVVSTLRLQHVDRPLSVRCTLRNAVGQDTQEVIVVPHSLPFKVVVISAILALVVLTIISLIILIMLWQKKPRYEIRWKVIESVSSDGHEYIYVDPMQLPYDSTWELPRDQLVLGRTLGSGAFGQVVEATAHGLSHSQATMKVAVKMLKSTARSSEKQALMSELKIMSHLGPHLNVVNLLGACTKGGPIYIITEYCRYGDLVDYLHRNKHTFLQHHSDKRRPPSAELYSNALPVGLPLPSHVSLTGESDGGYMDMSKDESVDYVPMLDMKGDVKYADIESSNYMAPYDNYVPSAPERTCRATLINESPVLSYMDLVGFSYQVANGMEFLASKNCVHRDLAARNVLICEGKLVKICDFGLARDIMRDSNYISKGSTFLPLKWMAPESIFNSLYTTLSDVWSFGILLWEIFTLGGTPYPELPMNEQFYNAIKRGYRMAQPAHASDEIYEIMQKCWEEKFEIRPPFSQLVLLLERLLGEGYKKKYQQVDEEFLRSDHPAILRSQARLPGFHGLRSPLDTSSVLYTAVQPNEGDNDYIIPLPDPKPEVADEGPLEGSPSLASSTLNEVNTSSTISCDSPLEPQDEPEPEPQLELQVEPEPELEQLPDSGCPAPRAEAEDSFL

B1: PRb-CN16: anti-hPDGFR-β scFv clone (VH SEQ ID NO 39, VL SEQ ID NO 40), tested as scFv-Cκ-anti-cotinine scFv bispecific antibody (antibody, V domains shown)
VH: AVTLDESGGGLQTPGTALSLVCKASGFTFSSFNMAWVRQAPGKGLEFVGEISNTAGSTFYAPAVKGRATISRDNGQSTVRLQLNNLRAEDTAIYYCAKAAGTCYSHSCTGYIDAWGHGTEVIVSSTS
VL: LTQPSSVSANPGETVKITCSGSSSSYGWYQQKSPGSAPVTLIYENNQRPSNIPSRFSGSKSGSTGTLTITGVQAEDEAVYYCGNADRSNSAGTFGAGTTLTVL
modifications: VH of PRb-CN16; VL of PRb-CN16
- cell binding in the presence of hPDGF-BB-biotin [1]: able to bind to hPDGFR-β in the presence of hPDGF-BB-biotin
- binding ability to hPDGFR-β in the presence of hPDGF-BB [2]: not inhibited in the presence of hPDGF-BB
- cellular internalization [3, 7]: Intracellular fluorescence was detected
- cellular internalization [3, 8]: co-localized with endosome-specific antibody
- cross-species binding, Cynomolgus monkey PDGFR-β [4]: confirmed to bind
- toxicity of complex with cot-duo in human pericyte cells, comparison [5]: higher toxicity than control anti-mCD154 x cotinine scFv-Cκ-scFv
- simultaneous binding to hPDGFR-β and cotinine [6]: capable of simultaneously binding hPDGFR-β and cotinine

B2: PRb-CN32: anti-hPDGFR-β scFv clone (VH SEQ ID NO 47, VL SEQ ID NO 48), tested as scFv-Cκ-anti-cotinine scFv bispecific antibody (antibody, V domains shown)
VH: AVTLDESGGGLQTPRGTLSLVCKASGFTFSSFNMFWVRQAPGKGLEFVAGISTTGRYTGYGSAVQGRGTISRDNGQSTVRLQLNNLRAEDTGTYYCAKSAGSTYSYWDSDAGLIDAWGHGTEVIVSSTS
VL: LTQPSSVSANLGETVKITCSGGSNAGSYYYGWYQQKSPGSAPVTVIYSNNQRPSDIPSRFSGSTSGSTSTLTITGVQVDDEAVYFCGSGDSSSIAAFGAGTTLTVL
modifications: VH of PRb-CN32; VL of PRb-CN32
- cell binding in the presence of hPDGF-BB-biotin [1]: able to bind to hPDGFR-β in the presence of hPDGF-BB-biotin
- binding ability to hPDGFR-β in the presence of hPDGF-BB [2]: not inhibited in the presence of hPDGF-BB
- cellular internalization [3, 7]: Intracellular fluorescence was detected; also recorded: internalizes most effectively
- cellular internalization [3, 8]: co-localized with endosome-specific antibody
- cross-species binding, Cynomolgus monkey PDGFR-β [4]: confirmed to bind
- toxicity of complex with cot-duo in human pericyte cells, comparison [5]: higher toxicity than control anti-mCD154 x cotinine scFv-Cκ-scFv; also recorded: highest cytotoxicity
- simultaneous binding to hPDGFR-β and cotinine [6]: capable of simultaneously binding hPDGFR-β and cotinine

B3: PRb-CN26: anti-hPDGFR-β scFv clone (VH SEQ ID NO 55, VL SEQ ID NO 56), tested as scFv-Cκ-anti-cotinine scFv bispecific antibody (antibody, V domains shown)
VH: AVTLDESGGGLQTPGGGLSLVCKASGFTFSDRGIHWVRQAPGKGLEWVAGIGNTGSYTAYAPAVKGRATISRDNGQSTVRLQLNNLRAEDTATYYCAKRGFMDAGGIDAWGHGTEVIVSSTS
VL: LTQPSSVSANPGETVKITCSGGGSYAGSYYYGWYQQKSPGSAPVTVIYDNTNRPSNIPSRFSGSLSGSTDTLTITGVQAEDEAVYFCGGYDGISDTGIFGAGTTLTVL
modifications: VH of PRb-CN26; VL of PRb-CN26
- cell binding in the presence of hPDGF-BB-biotin [1]: able to bind to hPDGFR-β in the presence of hPDGF-BB-biotin
- binding ability to hPDGFR-β in the presence of hPDGF-BB [2]: not inhibited in the presence of hPDGF-BB
- cellular internalization [3, 7]: not internalized
- cellular internalization [3, 8]: co-localized with endosome-specific antibody; also recorded: internalized in a large amount within 30 minutes
- cross-species binding, Cynomolgus monkey PDGFR-β [4]: confirmed to bind
- toxicity of complex with cot-duo in human pericyte cells, comparison [5]: higher toxicity than control anti-mCD154 x cotinine scFv-Cκ-scFv; also recorded: highest cytotoxicity
- simultaneous binding to hPDGFR-β and cotinine [6]: capable of simultaneously binding hPDGFR-β and cotinine
